Assay results as given in publication PMC10620989 (2023).

Molecular target: Bim BH3 peptide (FITC-labeled) BH3 (Homo sapiens, UniProt O43521, FITC-labeled Bim BH3 peptide, GST-tagged Mcl-1)
Experiment: fluorescence polarization

- Kd: 12.4 nM
B1: Mcl-1 (GST-tagged) 152-309 (protein)
chain: EDDLYRQSLEIISRYLREQATGSKDSKPLGEAGAAGRRALETLRRVGDGVQRNHETAFQGMLRKLDIKNEGDVKSFSRVMVHVFKDGVTNWGRIVTLISFGAFVAKHLKSVNQESFIEPLAETITDVLVRTKRDWLVKQRGWDGFVEFFHVQDLEGGI
